Test results taken from publication PMC7666581, “Atypical chemoreceptor arrays accommodate high membrane curvature” (Nature Communications, 2020).

Assays:
CheR (classical Td CheR) = target: T1, CheR (classical Td CheR) (Treponema denticola, UniProt Q73PZ7); experiment: isothermal titration calorimetry; type: binding
T1 construct: purified CheR; cloning and tag not described in main text; printed residues R79, Gly152, Val180, Y218
T1 sequence (Q73PZ7 1-271): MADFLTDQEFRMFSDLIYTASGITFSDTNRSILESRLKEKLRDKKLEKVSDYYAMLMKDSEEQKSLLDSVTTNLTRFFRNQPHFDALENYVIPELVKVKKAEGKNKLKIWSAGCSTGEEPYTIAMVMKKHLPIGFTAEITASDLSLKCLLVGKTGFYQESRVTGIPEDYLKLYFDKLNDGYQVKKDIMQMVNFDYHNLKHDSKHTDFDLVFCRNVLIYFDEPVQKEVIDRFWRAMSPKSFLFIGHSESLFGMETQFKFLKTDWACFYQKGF

[1] = target: T2, CheW-CheRlike (CheW-Rlike) (Treponema denticola, UniProt F7IUZ1); experiment: isothermal titration calorimetry; type: binding
T2 construct: gene cheW-1; full-length fusion: N-terminal CheW domain, 28-residue linker, C-terminal CheR-like domain; poly-His tag (pET28a), E. coli BL21(DE3); mainly monomer
T2 sequence (F7IUZ1 1-444): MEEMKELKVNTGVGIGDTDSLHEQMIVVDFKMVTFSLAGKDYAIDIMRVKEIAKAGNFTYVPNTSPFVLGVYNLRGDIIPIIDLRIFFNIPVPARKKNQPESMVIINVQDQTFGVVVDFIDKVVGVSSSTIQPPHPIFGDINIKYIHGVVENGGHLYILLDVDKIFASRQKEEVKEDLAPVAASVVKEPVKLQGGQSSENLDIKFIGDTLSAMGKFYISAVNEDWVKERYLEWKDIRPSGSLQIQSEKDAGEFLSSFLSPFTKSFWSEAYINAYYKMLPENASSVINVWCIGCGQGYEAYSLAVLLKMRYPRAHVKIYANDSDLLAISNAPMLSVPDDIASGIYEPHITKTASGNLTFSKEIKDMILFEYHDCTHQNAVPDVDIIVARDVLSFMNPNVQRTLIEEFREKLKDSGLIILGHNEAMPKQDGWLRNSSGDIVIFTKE

[2] = target: Treponema denticola histidine kinase CheA (Treponema denticola) (UniProt O85747); experiment: SEC-MALS; 25 °C; each sample 10 mg/mL; 50 mM MOPS pH 7.5, 150 mM KCl, 5 mM MgCl2; mixed sample 1:1 molar CheA:CheW-R_(like); CheW-R_(like) pre-incubated 15 min with 5 mM DTT; GE S200 Increase (10/300)
[3] = target: the molecule itself; experiment: as above
[4] = target: the molecule itself; experiment: crystal structure; isolated P3 domain at 32 mg/ml, hanging drop, 0.1 M Imidazole pH 7.0, 25% PEG 400; data cut off at 1.5 Å

C[S+](CC[C@H](N)C(=O)O)C[C@H]1O[C@@H](n2cnc3c(N)ncnc32)[C@H](O)[C@@H]1O (some centres unmarked) [S-adenosylmethionine]
Kd (CheR (classical Td CheR)): 20 ± 3.7 µM | Kd [1]: 8.8 ± 1.9 µM

Treponema denticola CheW-CheR_(like) protein (TDE1492) (natural protein)
stoichiometry N (CheW-R subunit per CheA dimer) [2]: 1

B1: Treponema denticola histidine kinase CheA (enzyme, UniProt O85747 1-801, looked up)
chain: MSDYLDINNEELLKDFFSEAEQQVEILESNVLVIEQNPEDRNSIDEIFRAAHTLKGGSATVEMLELSKFTHAMEDLLDEIRSGSVKVTGETVDLLLKSIDIIKLMLDARASGSIYSDDVSGIVNQLRSFIPAKAEKKSSKASAPKVSIPASVSPVSAPKVQASASNLDIKDYFSEYEILELAETIQKGEDLYAVIVKFDESNLMNSVGGIQVFAALKDYGSVLKTVPDFDALYEDEFHETVIYFLSSASDSKILEKAAFIGDVTLSASAERLDIKDKTPESPKPAKAAPAQSAPEASVSEVKVSEKTEEKPVQESKEQPSKPEKKQSQTSPQGSGHSSGSILRVDANRIDYLLNLVSETVITKASLNQSTIEFAELYDKFQNSSTIYKDKTRRLLDKMPEYLEKIQQGYDINSIKQDVLNEYSSLLEVFGDFDSLMKAAVTKFKSSSQNLGRISGELQEGVMKIRMVPISQIFSRFPRVVRDLSRDLNKNVQLVIEGEDTELDKSVVEDLLDPIMHCVRNSLDHGVESPEVRKGLGKPEQGILLLKASNEGNMIVIEVADDGHGIDVEAVKQKAVERGILHPNKSLTDVEAFQLVFAPGFSTSKTISSVSGRGVGLDVVKTHIEKLNGTVMVESEPNVGTRFIIKLPLTLAIIQGLLIRVGDEVYSIPITSVIESHRVKPDEINRIDNYEVFNVRDEVYSLLRLNRLFGITSAETDDDGYNYIVVVGTEEKKVGLMVDSLIGEEAVVIKPLKDQFTNSPGIAGASILGDGSVSLIIDVAQLLELGLKQEMQARERREASIW
notes: Histidine kinase CheA of Treponema denticola ATCC 35405, the only CheA homolog in the genome; amplified from Td genomic DNA; Cloned NdeI/BamHI into pet28a; co-transcribed with TDE1492; also called Td CheA; CheA-F2; source: E. coli BL21-DE3, purified (Nickel-NTA, size exclusion)
stoichiometry N [3]: 2

B2: Treponema denticola CheA P3 domain (dimerization domain) (domain or fragment)
chain: SILRVDANRIDYLLNLVSETVITKASLNQSTIEFAELYDKFQNSSTIYKDKTRRLLDKMPEYLEKIQQGYDINSIKQDVLNEYSSLLEVFGDFDSLMKAAVTKFKSSSQNLGRISGELQEGVMKIRMVP
notes: P3 (dimerization) domain of Treponema denticola CheA, with about 50 additional residues joining the canonical P3 helices; Cloned NdeI/EcoRI into pet28a; The printed residue number Tyr83 probably counts on the deposited construct and not on whole CheA; also called Td P3 domain; isolated P3 domain; source: E. coli BL21-DE3, purified (Nickel-NTA, size exclusion)
binding result [4]: binds
